Patent US10047131B2, “Peptides and combination of peptides for use in immunotherapy against ovarian cancer and other cancers” (immatics biotechnologies GmbH, priority 2015, dated 2018)

These substances were tested against HLA-A*02:01 (Homo sapiens, UniProt P04439, D140Y/D185E/D98H/E176V/E277Q/G131W/G231S/I119V/I121R/I166T/I218V/L300P/L318F/N151K/N90K/P208A/P217A/Q86G/Q94H/R138H/R169H/T345S) (assay: MHC binding assay (UV-ligand exchange, ELISA of exchange yield)). Conditions: binding to HLA-A*02:01, UV-ligand exchange.
How it was run: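 ELISA of β2m retained on streptavidin-captured, 100-fold diluted complexes (HRP anti-β2m, TMB, 450 nm) gives the yield. Complexes come from UV-triggered exchange of a photocleavable placeholder peptide for the candidate, which must bind to stop complex dissociation.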

Substance	Peptide exchange (MHC class I binding score, peptide exchange yield)
309 (GLFDGVPTTA; listed as Homo sapiens) [compound 309]	“+++” (≥50 = +++)
310 (FLVDTPLARA; listed as Homo sapiens) [compound 310]	“++++” (≥75% = ++++)
311 (RLYTGMHTV; listed as Homo sapiens) [compound 311]	“+++” (≥50 = +++)
312 (IISDLTIAL; listed as Homo sapiens) [compound 312]	“+++” (≥50 = +++)
313 (VLFDDELLMV; listed as Homo sapiens) [compound 313]	“+++” (≥50 = +++)
314 (ALIAEGIALV; listed as Homo sapiens) [compound 314]	“+++” (≥50 = +++)
315 (YLQDVVEQA; listed as Homo sapiens) [compound 315]	“+++” (≥50 = +++)
316 (ILLERLWYV; listed as Homo sapiens) [compound 316]	“+++” (≥50 = +++)
317 (SLAALVVHV; listed as Homo sapiens) [compound 317]	“+++” (≥50 = +++)
318 (GLINTGVLSV; listed as Homo sapiens) [compound 318]	“++” (≥20% = ++)
319 (SLEPQIQPV; listed as Homo sapiens) [compound 319]	“++” (≥20% = ++)
320 (KMFEFVEPLL; listed as Homo sapiens) [compound 320]	“++++” (≥75% = ++++)
321 (GLFEDVTQPGILL; listed as Homo sapiens) [compound 321]	“++++” (≥75% = ++++)
322 (TLMTSLPAL; listed as Homo sapiens) [compound 322]	“+++” (≥50 = +++)
324 (FLYDEIEAEV; listed as Homo sapiens) [compound 324]	“+++” (≥50 = +++)
325 (FIMPATVADATAV; listed as Homo sapiens) [compound 325]	“+++” (≥50 = +++)
326 (FLPEALDFV; listed as Homo sapiens) [compound 326]	“+++” (≥50 = +++)
327 (GLAPFTEGISFV; listed as Homo sapiens) [compound 327]	“+++” (≥50 = +++)
328 (ALNDQVFEI; listed as Homo sapiens) [compound 328]	“+++” (≥50 = +++)
329 (FLVTLNNVEV; listed as Homo sapiens) [compound 329]	“++++” (≥75% = ++++)
330 (QLALKVEGV; listed as Homo sapiens) [compound 330]	“+++” (≥50 = +++)
331 (KVDTVWVNV; listed as Homo sapiens) [compound 331]	“+++” (≥50 = +++)
332 (YLISELEAA; listed as Homo sapiens) [compound 332]	“+++” (≥50 = +++)

Substance	Peptide exchange (MHC class I binding score, peptide exchange yield)
333 (FLPDANSSV; listed as Homo sapiens) [compound 333]	“++” (≥20% = ++)
334 (TLTKVLVAL; listed as Homo sapiens) [compound 334]	“+++” (≥50 = +++)
335 (YSLSSVVTV; listed as Homo sapiens) [compound 335]	“+++” (≥50 = +++)
336 (ILLTAIVQV; listed as Homo sapiens) [compound 336]	“+++” (≥50 = +++)
337 (HLLSELEAAPYL; listed as Homo sapiens) [compound 337]	“++++” (≥75% = ++++)
339 (GLWEIENNPTVKA; listed as Homo sapiens) [compound 339]	“++++” (≥75% = ++++)
340 (ALLSMTFPL; listed as Homo sapiens) [compound 340]	“++++” (≥75% = ++++)
341 (SQIALNEKLVNL; listed as Homo sapiens) [compound 341]	“+++” (≥50 = +++)
342 (HIYDKVMTV; listed as Homo sapiens) [compound 342]	“+++” (≥50 = +++)
343 (SLLEVNEESTV; listed as Homo sapiens) [compound 343]	“+++” (≥50 = +++)
344 (YLQDQHLLLTV; listed as Homo sapiens) [compound 344]	“+++” (≥50 = +++)
345 (VIWKALIHL; listed as Homo sapiens) [compound 345]	“+++” (≥50 = +++)
346 (LLDSKVPSV; listed as Homo sapiens) [compound 346]	“+++” (≥50 = +++)
347 (SLFKHDPAAWEA; listed as Homo sapiens) [compound 347]	“++++” (≥75% = ++++)
348 (ILLDVKTRL; listed as Homo sapiens) [compound 348]	“++++” (≥75% = ++++)
349 (SLTEYLQNV; listed as Homo sapiens) [compound 349]	“++++” (≥75% = ++++)
350 (ALLDVTHSELTV; listed as Homo sapiens) [compound 350]	“+++” (≥50 = +++)
351 (SLIPNLRNV; listed as Homo sapiens) [compound 351]	“+++” (≥50 = +++)
352 (SLLELLHIYV; listed as Homo sapiens) [compound 352]	“+++” (≥50 = +++)
353 (YLFEMDSSL; listed as Homo sapiens) [compound 353]	“++” (≥20% = ++)
354 (LILEGVDTV; listed as Homo sapiens) [compound 354]	“++” (≥20% = ++)
355 (SIQQSIERLLV; listed as Homo sapiens) [compound 355]	“++” (≥20% = ++)
356 (KLLGKLPEL; listed as Homo sapiens) [compound 356]	“+++” (≥50 = +++)
